Experimental data from publication doi:10.1101/2021.10.11.463904 (bioRxiv, 2021).
Like-named read-outs stand apart in the source and are kept apart here. Ends that are not written are not given here. * marks the point of attachment. FITC = O=C1OC2(c3ccc(O)cc3Oc3cc(O)ccc32)c2ccc(NC(=S)*)cc21; Ahx = NCCCCCC(=O)O

Experiments:
[1] = molecular target: FITC-Mature-1cys (Mus musculus) (UniProt P09535); test: fluorescence polarisation
[2] = molecular target: FITC-Mature-1cys (Mus musculus) (UniProt P09535); test: fluorescence polarisation; remark: listed apart in the source
BiP [3] = molecular target: T1, BiP (UniProt P20029 20-655); test: fluorescence polarisation
BiP [4] = molecular target: T1, BiP; test: fluorescence polarisation; remark: listed apart in the source
dynamic light scattering = molecular target: the molecule itself; test: dynamic light scattering
BSA = BSA (bovine (from the name BSA), UniProt P02769 25-607); test: fluorescence polarisation
BiP [5] = molecular target: T1, BiP; test: fluorescence polarisation; remark: listed apart in the source

T1 sequence (P20029 20-655): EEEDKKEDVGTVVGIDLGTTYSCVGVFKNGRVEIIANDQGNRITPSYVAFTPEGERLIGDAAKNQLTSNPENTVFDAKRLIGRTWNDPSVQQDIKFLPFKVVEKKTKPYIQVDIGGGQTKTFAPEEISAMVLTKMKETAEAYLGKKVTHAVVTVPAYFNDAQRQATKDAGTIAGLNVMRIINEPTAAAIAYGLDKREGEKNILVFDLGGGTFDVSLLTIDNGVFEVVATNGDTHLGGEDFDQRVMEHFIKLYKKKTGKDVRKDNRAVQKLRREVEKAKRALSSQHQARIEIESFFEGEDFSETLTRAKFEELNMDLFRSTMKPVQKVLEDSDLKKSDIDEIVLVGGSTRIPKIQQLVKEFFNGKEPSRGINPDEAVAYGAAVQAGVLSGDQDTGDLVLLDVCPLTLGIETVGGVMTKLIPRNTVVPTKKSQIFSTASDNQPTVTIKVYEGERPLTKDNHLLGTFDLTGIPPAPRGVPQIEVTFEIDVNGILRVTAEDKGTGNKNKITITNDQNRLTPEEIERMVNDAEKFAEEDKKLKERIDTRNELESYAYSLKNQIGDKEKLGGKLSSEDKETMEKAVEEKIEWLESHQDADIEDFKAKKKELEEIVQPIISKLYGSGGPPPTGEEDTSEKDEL
Chain of BiP (from UniProt P20029 20-655) (natural protein) (P20029 20-655): as above
Chain of FITC-Mature-1cys (Mus musculus) (P09535 25-91): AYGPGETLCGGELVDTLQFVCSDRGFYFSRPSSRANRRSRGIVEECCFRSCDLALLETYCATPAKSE
Chain of BSA (P02769 25-607): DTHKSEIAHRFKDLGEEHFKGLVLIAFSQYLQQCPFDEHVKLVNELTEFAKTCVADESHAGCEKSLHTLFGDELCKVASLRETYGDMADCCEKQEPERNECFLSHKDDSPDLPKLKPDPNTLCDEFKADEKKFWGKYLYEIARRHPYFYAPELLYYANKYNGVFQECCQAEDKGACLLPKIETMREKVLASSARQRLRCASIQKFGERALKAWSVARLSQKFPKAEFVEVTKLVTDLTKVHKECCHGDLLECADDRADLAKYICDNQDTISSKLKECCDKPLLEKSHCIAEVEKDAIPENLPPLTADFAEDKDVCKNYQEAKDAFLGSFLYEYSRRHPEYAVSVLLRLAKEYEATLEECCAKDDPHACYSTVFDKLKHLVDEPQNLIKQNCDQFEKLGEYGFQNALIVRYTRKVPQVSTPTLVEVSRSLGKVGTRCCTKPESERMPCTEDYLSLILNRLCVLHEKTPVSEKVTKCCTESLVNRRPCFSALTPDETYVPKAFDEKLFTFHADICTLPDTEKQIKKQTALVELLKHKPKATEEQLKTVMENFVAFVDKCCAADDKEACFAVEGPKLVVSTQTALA

Row | Molecule | Kd (BiP [3]) [µM] | Kd (BiP [4]) [µM] | further results
1 | BiP (from UniProt P20029 20-655) (natural protein) |  |  | Kd [1]: 9.7 µM; Kd [2]: 2.7 µM
2 | {FITC-Ahx}-QSAGRLRRGLPALLRARRG [FITC-E-peptide 121-139] | 5.3 ± 0.6 |  | 
3 | {FITC-Ahx}-EAKRHRPLIVLPPKDPAHG [FITC-E-peptide 151-169] | 15 ± 1 |  | 
4 | RDVC(FITC‑maleimide)TSQAVLPDDFPRYPVGKFFQYDTWR (domain or fragment) [FITC-E-peptide 92-120] | 0.67 ± 0.17 | 8 ± 3.8 | 
5 | RDVC(FITC‑maleimide)TSQAVLPDDFPRYPVGKFFQYDTWRQSAGRLRRGLPALLRARRG (domain or fragment) [FITC-E-peptide 92-139] | 0.52 ± 0.13 | 1.9 ± 0.6 | 
6 | E-peptide (domain or fragment) RDVCTSQAVLPDDFPRYPVGKFFQYDTWRQSAGRLRRGLPALLRARRGRMLAKELKEFREAKRHRPLIVLPPKDPAHGGASSEMSSNHQ |  |  | binding result (dynamic light scattering): binds
7 | {FITC-Ahx}-DDFPRYPVGKFFQYDTWR [FITC-E-peptide 103-120] | 0.95 ± 0.17 | 13 ± 2 | Kd (BSA): 13 ± 2 µM; Kd (BiP [5]): 0.46 ± 0.05 µM
